Measurements reported in patent US7018846 (SCIENCE AND TECHNOLOGY CORPORATION UNM, dated 2006).
No end group written: not given here. *: point of attachment. For = O=C*

Biological target: T1, C-terminally His-tagged N-formyl peptide receptor (UniProt P21462 1-350)
T1 construct: Expressed in transfected U937 cells; also called C-His FPR; His6 FPR
T1 sequence: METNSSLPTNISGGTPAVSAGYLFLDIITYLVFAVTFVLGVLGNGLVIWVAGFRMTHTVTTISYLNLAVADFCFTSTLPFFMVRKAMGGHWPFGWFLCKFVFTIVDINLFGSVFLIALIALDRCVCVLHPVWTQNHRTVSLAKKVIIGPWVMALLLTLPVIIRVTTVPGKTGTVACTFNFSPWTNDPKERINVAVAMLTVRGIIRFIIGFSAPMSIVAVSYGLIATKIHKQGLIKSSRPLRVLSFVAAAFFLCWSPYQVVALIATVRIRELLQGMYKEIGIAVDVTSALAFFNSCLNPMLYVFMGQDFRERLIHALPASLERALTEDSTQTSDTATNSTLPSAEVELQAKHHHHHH
Test: flow cytometry; fMLFK-FITC on C-His FPR silica particles, optimal receptor input

B1: formyl-met-leu-phe-lys-FITC (peptide)
peptide: For-MLFK
modifications: also: FITC label, attachment site not given here
notes: Bought from Peninsula Laboratories; also called fMLFK-FITC; fluorescent formyl peptide
- fluorescent ligand signal to background ratio: ≥ 30 ratio (x:1)
